Source: patent US20080261863A1 (Bayer, published 2008)
Ends that are not written are not given here.

T1: VPAC1 receptor
T1 sequence (P32241 whole entry, species assumed, looked up): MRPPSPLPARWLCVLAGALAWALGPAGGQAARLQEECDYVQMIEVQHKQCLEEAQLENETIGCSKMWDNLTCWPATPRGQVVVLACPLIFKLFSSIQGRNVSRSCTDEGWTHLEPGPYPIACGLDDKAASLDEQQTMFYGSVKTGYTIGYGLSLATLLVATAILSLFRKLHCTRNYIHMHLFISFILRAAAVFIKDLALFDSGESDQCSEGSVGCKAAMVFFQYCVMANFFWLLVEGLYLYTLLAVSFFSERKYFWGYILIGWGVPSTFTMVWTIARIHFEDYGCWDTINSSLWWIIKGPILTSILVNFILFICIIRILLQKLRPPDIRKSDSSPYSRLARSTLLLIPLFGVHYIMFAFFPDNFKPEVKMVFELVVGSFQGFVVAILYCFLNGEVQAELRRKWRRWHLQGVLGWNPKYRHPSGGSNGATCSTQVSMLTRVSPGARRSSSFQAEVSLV


Target: T1, VPAC1 receptor
Assay: cell-based or functional assay

Binder	EC50 (nM), cAMP assay, VPAC1 agonist activity
HSDAVFTDQYTRLRKQVAAKKYLQSIKQKRYC (ends and bridges not checked) [P12]	> 1000 nM
HSDAVFTDQYTRLRKQVAAKKYLQSIKQKRY (ends and bridges not checked) [P5]	232 nM

More lines, now with the values ahead:

EC50 (nM), cAMP assay, VPAC1 agonist activity	Binder
> 1000 nM	HSDAVFTDQYTRLRKQVAAKKYLQSIKQKRYC (branched 43 kD PEG attached to the C-terminal cysteine via maleimide (thioether) linkage) [P412 (P12+43 kD PEG)]
> 1000 nM	HSDAVFTDQYTRLRKQVAAKKYLQSIKQKRYC (linear 22 kD PEG attached to the C-terminal cysteine via maleimide (thioether) linkage) [P212 (P12+22 kD PEG)]
